Reference: the supplement of paper PMC9112550, “Optimization of the antimicrobial peptide Bac7 by deep mutational scanning” (BMC Biology, 2022)

Tested on: Escherichia coli TOP10
Test: shrunken log2 fold change of peptide-encoding DNA abundance (4.5 h post-induction vs induction); higher = less antimicrobial activity (less host growth inhibition)
Settings: time post-induction: 4.5 h; library: site-saturation at positions 5, 18, 19, 20
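Note: peptides expressed intracellularly from a pBAD plasmid library in pooled LB shake-flask culture, induced with 0.3% L-arabinose, DNA abundance read by NGS, three biological replicates, DESeq2 with apeglm shrinkage.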

Sequence	shrunken log2 fold change
RRIRCRPPRLPRPRPRPTPPPRP	0.807
RRIRLRPPRLPRPRPRPEMSPRP	-0.0316
RRIRNRPPRLPRPRPRPDIYPRP	-0.265
RRIRDRPPRLPRPRPRPQSHPRP	0.236
RRIRCRPPRLPRPRPRPNELPRP	-0.171
RRIRGRPPRLPRPRPRPFVAPRP	0.751
RRIRERPPRLPRPRPRPKGQPRP	0.132
RRIRPRPPRLPRPRPRPTKHPRP	-0.131
RRIRHRPPRLPRPRPRPEPAPRP	1.48
RRIRKRPPRLPRPRPRPQNSPRP	-0.0372
RRIRWRPPRLPRPRPRPSHQPRP	-0.0408
RRIRPRPPRLPRPRPRPEDNPRP	-0.0402
RRIRLRPPRLPRPRPRPQMPPRP	-0.417
RRIRDRPPRLPRPRPRPVGLPRP	0.627
RRIRYRPPRLPRPRPRPWLRPRP	0.0188
RRIRCRPPRLPRPRPRPGWYPRP	-0.244
RRIRSRPPRLPRPRPRPKWLPRP	0.104
RRIRPRPPRLPRPRPRPLPAPRP	0.864
RRIRRRPPRLPRPRPRPTIDPRP	-0.0234
RRIRMRPPRLPRPRPRPIYHPRP	-0.322
RRIRRRPPRLPRPRPRPSSVPRP	0.131
RRIRWRPPRLPRPRPRPPHMPRP	0.112
RRIRMRPPRLPRPRPRPAPPPRP	1.43
RRIRTRPPRLPRPRPRPPMLPRP	0.0279
RRIRFRPPRLPRPRPRPWYEPRP	-0.0991

Sequence	shrunken log2 fold change
RRIRSRPPRLPRPRPRPSYHPRP	-0.836
RRIRLRPPRLPRPRPRPVKYPRP	-0.446
RRIRARPPRLPRPRPRPCMVPRP	-0.0554
RRIRSRPPRLPRPRPRPHQNPRP	-0.0421
RRIRWRPPRLPRPRPRPAWSPRP	0.265
RRIRLRPPRLPRPRPRPPKAPRP	0.025
RRIRKRPPRLPRPRPRPHRIPRP	0.00291
RRIRCRPPRLPRPRPRPMEMPRP	-0.193
RRIRNRPPRLPRPRPRPWSTPRP	-0.0852
RRIRFRPPRLPRPRPRPQEQPRP	-0.0102
RRIRVRPPRLPRPRPRPTCDPRP	-0.156
RRIRERPPRLPRPRPRPNRYPRP	-0.0565
RRIRKRPPRLPRPRPRPVPIPRP	0.177
RRIRLRPPRLPRPRPRPWDAPRP	0.135
RRIRPRPPRLPRPRPRPMHPPRP	0.324
RRIRPRPPRLPRPRPRPMCCPRP	-0.0731
RRIRVRPPRLPRPRPRPNHQPRP	-0.221
RRIRNRPPRLPRPRPRPFVIPRP	-0.528
RRIRMRPPRLPRPRPRPPLNPRP	0.584
RRIRTRPPRLPRPRPRPQFYPRP	-0.791
RRIRRRPPRLPRPRPRPFPCPRP	0.038
RRIRIRPPRLPRPRPRPRHAPRP	0.128
RRIRLRPPRLPRPRPRPWFDPRP	-0.365
RRIRLRPPRLPRPRPRPPRHPRP	0.377
RRIRDRPPRLPRPRPRPFFEPRP	0.219

Sequence	shrunken log2 fold change
RRIRKRPPRLPRPRPRPWPAPRP	0.376
RRIRQRPPRLPRPRPRPRCGPRP	0.236
RRIRMRPPRLPRPRPRPWDAPRP	0.228
RRIRYRPPRLPRPRPRPNTDPRP	-0.964
RRIRHRPPRLPRPRPRPIRVPRP	-0.361
RRIRGRPPRLPRPRPRPMTHPRP	0.708
RRIRIRPPRLPRPRPRPVIAPRP	-0.388
RRIRPRPPRLPRPRPRPMQWPRP	0.169
RRIRRRPPRLPRPRPRPVQQPRP	0.213
RRIRRRPPRLPRPRPRPHPSPRP	-0.0167
RRIRRRPPRLPRPRPRPENAPRP	0.115
RRIRQRPPRLPRPRPRPCANPRP	0.00875
RRIRQRPPRLPRPRPRPHQNPRP	-0.246
RRIRYRPPRLPRPRPRPWNTPRP	-0.384
RRIRCRPPRLPRPRPRPQKAPRP	0.265
RRIRERPPRLPRPRPRPGQRPRP	-0.0192
RRIRTRPPRLPRPRPRPFIQPRP	-0.312
RRIRERPPRLPRPRPRPFLGPRP	-0.284
RRIRYRPPRLPRPRPRPNWSPRP	0.0306
RRIRARPPRLPRPRPRPKTWPRP	0.261
RRIRMRPPRLPRPRPRPPDSPRP	0.198
RRIRARPPRLPRPRPRPSAAPRP	0.848
RRIRMRPPRLPRPRPRPKTPPRP	3.35
RRIRGRPPRLPRPRPRPAPMPRP	1.1
RRIRARPPRLPRPRPRPCDTPRP	0.255

Sequence	shrunken log2 fold change
RRIRTRPPRLPRPRPRPVDGPRP	0.0538
RRIRARPPRLPRPRPRPLGIPRP	-0.12
RRIRERPPRLPRPRPRPYKYPRP	0.686
RRIRCRPPRLPRPRPRPNWKPRP	0.0151
RRIRSRPPRLPRPRPRPTLCPRP	0.0788
RRIRRRPPRLPRPRPRPFGGPRP	0.0433
RRIRERPPRLPRPRPRPPSCPRP	0.103
RRIRKRPPRLPRPRPRPCKRPRP	-0.194
RRIRFRPPRLPRPRPRPRAIPRP	0.0543
RRIRWRPPRLPRPRPRPTLMPRP	0.479
RRIRPRPPRLPRPRPRPIDIPRP	-0.252
RRIRRRPPRLPRPRPRPGRWPRP	0.591
RRIRGRPPRLPRPRPRPGQRPRP	0.345
RRIRMRPPRLPRPRPRPYLQPRP	-0.0699
RRIRQRPPRLPRPRPRPGSKPRP	-0.00453
RRIRERPPRLPRPRPRPSHKPRP	-0.437
RRIRRRPPRLPRPRPRPCINPRP	2.42
RRIRTRPPRLPRPRPRPTKKPRP	0.0786
RRIRYRPPRLPRPRPRPICNPRP	-0.332
RRIRDRPPRLPRPRPRPQVVPRP	0.0572
RRIRTRPPRLPRPRPRPWERPRP	-0.0102
RRIRDRPPRLPRPRPRPSLLPRP	0.05
RRIRFRPPRLPRPRPRPYCGPRP	-0.306
RRIRHRPPRLPRPRPRPSKHPRP	-0.177
RRIRSRPPRLPRPRPRPICTPRP	0.166

Sequence	shrunken log2 fold change
RRIRIRPPRLPRPRPRPPVVPRP	0.0726
RRIRIRPPRLPRPRPRPLTCPRP	-0.174
RRIRERPPRLPRPRPRPARHPRP	-0.00285
RRIRSRPPRLPRPRPRPEASPRP	0.715
RRIRKRPPRLPRPRPRPGSNPRP	-0.0467
RRIRNRPPRLPRPRPRPMNMPRP	-0.356
RRIRFRPPRLPRPRPRPCDEPRP	0.112
RRIRMRPPRLPRPRPRPRGPPRP	0.684
RRIRNRPPRLPRPRPRPMNSPRP	-0.148
RRIRGRPPRLPRPRPRPYFMPRP	-0.389
RRIRFRPPRLPRPRPRPYMSPRP	-0.401
RRIRHRPPRLPRPRPRPGIFPRP	-0.24
RRIRMRPPRLPRPRPRPSDIPRP	-0.192
RRIRFRPPRLPRPRPRPFLAPRP	-0.486
RRIRYRPPRLPRPRPRPMDAPRP	-0.00112
RRIRRRPPRLPRPRPRPRQMPRP	0.313
RRIRKRPPRLPRPRPRPYMFPRP	-0.109
RRIRVRPPRLPRPRPRPSACPRP	-0.768
RRIRLRPPRLPRPRPRPLHKPRP	0.223
RRIRMRPPRLPRPRPRPRPTPRP	1.27
RRIRKRPPRLPRPRPRPWRVPRP	0.122
RRIRPRPPRLPRPRPRPQGCPRP	-0.0849
RRIRLRPPRLPRPRPRPHRAPRP	-0.0697
RRIRSRPPRLPRPRPRPHKQPRP	-0.0702
RRIRNRPPRLPRPRPRPTYKPRP	-0.196

Sequence	shrunken log2 fold change
RRIRDRPPRLPRPRPRPRWRPRP	0.605
RRIRSRPPRLPRPRPRPIHHPRP	-0.362
RRIRLRPPRLPRPRPRPVFRPRP	0.0694
RRIRERPPRLPRPRPRPSKMPRP	-0.141
RRIRARPPRLPRPRPRPWDLPRP	0.612
RRIRCRPPRLPRPRPRPNDYPRP	-0.42
RRIRGRPPRLPRPRPRPWFPPRP	-0.132
RRIRGRPPRLPRPRPRPMVEPRP	0.446
RRIRTRPPRLPRPRPRPYHPPRP	-0.304
RRIRCRPPRLPRPRPRPDWCPRP	0.27
RRIRIRPPRLPRPRPRPDGIPRP	-0.0104
RRIRLRPPRLPRPRPRPVYAPRP	0.00563
RRIRHRPPRLPRPRPRPMTQPRP	-0.24
RRIRTRPPRLPRPRPRPDHGPRP	-0.0102
RRIRLRPPRLPRPRPRPAVVPRP	0.028
RRIRCRPPRLPRPRPRPLLTPRP	0.00188
RRIRCRPPRLPRPRPRPHVDPRP	-0.617
RRIRSRPPRLPRPRPRPEVYPRP	0.104
RRIRHRPPRLPRPRPRPITTPRP	-0.0193
RRIRWRPPRLPRPRPRPMDPPRP	0.0622
RRIRTRPPRLPRPRPRPWGHPRP	-0.066
RRIRRRPPRLPRPRPRPPSPPRP	0.875
RRIRWRPPRLPRPRPRPNLKPRP	-0.0669
RRIRSRPPRLPRPRPRPITPPRP	0.0356
RRIRIRPPRLPRPRPRPCFVPRP	-0.422
